B1: periostin: fasciclin extracellular matrix protein, endogenous ligand of integrin αvβ3; mouse recombinant used (protein)
chain: NSYYDKVLAHSRIRGRDQGPNVCALQQILGTKKKYFSSCKNWYQGAICGKKTTVLYECCPGYMRMEGMKGCPAVMPIDHVYGTLGIVGATTTQHYSDVSKLREEIEGKGSYTYFAPSNEAWENLDSDIRRGLENNVNVELLNALHSHMVNKRMLTKDLKHGMVIPSMYNNLGLFINHYPNGVVTVNCARVIHGNQIATNGVVHVIDRVLTQIGTSIQDFLEAEDDLSSFRAAAITSDLLESLGRDGHFTLFAPTNEAFEKLPRGVLERIMGDKVASEALMKYHILNTLQCSEAITGGAVFETMEGNTIEIGCEGDSISINGIKMVNKKDIVTKNGVIHLIDEVLIPDSAKQVIELAGKQQTTFTDLVAQLGLASSLKPDGEYTLLAPVNNAFSDDTLSMDQRLLKLILQNHILKVKVGLSDLYNGQILETIGGKQLRVFVYRTAICIENSCMVRGSKQGRNGAIHIFREIIQPAEKSLHDKLRQDKRFSIFLSLLEAADLKDLLTQPGDWTLFAPTNDAFKGMTSEERELLIGDKNALQNIILYHLTPGVYIGKGFEPGVTNILKTTQGSKIYLKGVNETLLVNELKSKESDIMTTNGVIHVVDKLLYPADIPVGNDQLLELLNKLIKYIQIKFVRGSTFKEIPMTVYRPAMTKIQIEGDPDFRLIKEGETVTEVIHGEPVIKKYTKIIDGVPVEITEKQTREERIITGPEIKYTRISTGGGETGETLQKFLQKEVSKVTKFIEGGDGHLFEDEEIKRLLQGDTPAKKIPANKRVQGPRRRSREGRSQ

Legend:
[1] = target: T1, TRPA1 (Mus musculus, UniProt Q8BLA8); assay: AITC (mustard)-induced calcium response in DRG neurons (specificity control); type: cell-based; conditions: perfusion with 100 nM cilengitide
T1 construct: endogenous in cells; host or cells: primary mouse dorsal root ganglion neurons
T1 sequence (Q8BLA8 whole entry, the tested form may be a part): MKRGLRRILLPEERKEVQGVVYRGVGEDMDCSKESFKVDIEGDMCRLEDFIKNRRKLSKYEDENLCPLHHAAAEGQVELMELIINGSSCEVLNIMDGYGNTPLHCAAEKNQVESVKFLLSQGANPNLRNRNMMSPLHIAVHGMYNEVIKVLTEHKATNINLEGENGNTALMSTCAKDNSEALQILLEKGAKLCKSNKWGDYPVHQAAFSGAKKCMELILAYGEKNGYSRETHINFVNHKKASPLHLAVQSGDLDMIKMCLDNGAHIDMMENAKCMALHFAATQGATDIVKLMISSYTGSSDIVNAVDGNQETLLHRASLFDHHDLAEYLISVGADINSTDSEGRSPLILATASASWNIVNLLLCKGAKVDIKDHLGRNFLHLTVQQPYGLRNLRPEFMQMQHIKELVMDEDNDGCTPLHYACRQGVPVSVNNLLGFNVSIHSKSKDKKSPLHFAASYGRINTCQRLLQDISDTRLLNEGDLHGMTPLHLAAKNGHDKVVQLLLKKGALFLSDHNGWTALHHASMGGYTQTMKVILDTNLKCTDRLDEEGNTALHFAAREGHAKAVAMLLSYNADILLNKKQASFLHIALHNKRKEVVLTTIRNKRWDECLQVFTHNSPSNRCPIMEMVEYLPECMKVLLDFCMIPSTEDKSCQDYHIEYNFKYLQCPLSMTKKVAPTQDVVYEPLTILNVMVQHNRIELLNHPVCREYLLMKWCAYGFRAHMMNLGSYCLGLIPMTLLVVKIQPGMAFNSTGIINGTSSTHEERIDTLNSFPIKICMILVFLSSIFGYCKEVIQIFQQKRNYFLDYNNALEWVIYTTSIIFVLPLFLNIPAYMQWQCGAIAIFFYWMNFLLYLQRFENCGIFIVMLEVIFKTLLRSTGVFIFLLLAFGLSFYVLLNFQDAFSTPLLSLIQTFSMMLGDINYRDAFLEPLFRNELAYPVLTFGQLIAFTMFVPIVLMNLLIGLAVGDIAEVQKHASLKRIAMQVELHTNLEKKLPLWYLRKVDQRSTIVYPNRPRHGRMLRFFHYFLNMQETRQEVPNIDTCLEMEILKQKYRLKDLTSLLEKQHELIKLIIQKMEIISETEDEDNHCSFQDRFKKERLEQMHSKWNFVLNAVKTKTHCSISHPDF
Procedure: Before imaging, cells were incubated in 350 μL of complete media containing 1 μM Fura-2 AM (Enzo Life Sciences, Farmingdale, New York, United States of America) for 30 min at 37° C. with 5% CO2. During imaging, the cells were perfused with a buffer containing the following: 135 mM sodium chloride, 3.2 mM potassium chloride, 2.5 mM magnesium chloride, 2.8 mM calcium chloride, 667 μM monobasic sodium phosphate, 14.2 mM sodium bicarbonate, and 10.9 mM D-glucose (all from VWR International, Radnor, Pennsylvania, United States of America) with a pH between 7.00 and 7.40. The buffer and the holding plate were kept at 37° C. while imaging. Imaging data was collected on a TE200 inverted microscope using NIS Elements software (Nikon, Melville, New York, United States of America). Cells were exposed to 340 nm and 380 nm wavelengths for 100 ms and the A340/A380 ratio was calculated. Traces were analyzed using Excel and responses greater than 10% of the baseline were counted. Each data point in the scatter plots represented one coverslip.

[2] = system: mouse cornea; assay: Eye wipes assay (corneal application); type: in vivo; conditions: wild-type mice, wiping measured for 1 minute
Procedure: (§1) All behavioral experiments were conducted during the light cycle at ambient temperature (23° C.). Behavioral assessment of scratching behavior was conducted as described previously (Mishra et al., 2011). Briefly, mice were injected intradermal into the nape of the neck with periostin (R&D), histamine, and chloroquine (all Millipore-Sigma) as previously described (Shimada and LaMotte, 2008). Compounds were diluted in PBS and the same was used as a vehicle. […] Additionally, cilengitide and periostin were combined together (mix) and injected i.d. into the dorsal neck of mouse. Scratching behavior was recorded for 30 minutes and data was presented in bouts per 30 minutes for mice. […] For eye wipes assay, periostin and capsaicin were dropped on mouse cornea and counted wipes for 1-minute. […] For dog's study, periostin (25 μg/25 μl) was injected in the dorsal neck (s.c.) and behavior was recorded and quantified for 30 minutes as “duration of pruritus manifestation” (DPM), as described earlier (Paps et al., 2016). […] When different raters separately scored a single tape, the ratings indicated high interrater reliability (coefficient of correlation, r>0.95). This method of itch readout in NHP has been used and accepted (Ko and Naughton, 2000). The behavior was recorded for 30 minutes duration and number of scratches quantified. […]

[3] = system: dogs; assay: Periostin injection in dogs, pruritus manifestations; type: in vivo, dog; conditions: mouse recombinant periostin 25 μg/100 μl intradermally, neck, within 15 minutes
[4] = system: monkeys; assay: Periostin injection in monkeys, number of scratches; type: in vivo, monkey; conditions: mouse recombinant periostin 25 μg/100 μl subcutaneously, thigh, within 15 minutes
Procedure: as §1

[5] = system: SST-positive DRG neurons; assay: Whole-cell patch clamp recordings in SST-positive mouse DRG neurons; type: cell-based
Procedure: DRGs were removed aseptically from SOM-reporter mice (6-8 weeks) and incubated with collagenase (1.25 mg/ml)/dispase-II (2.4 units/ml) (both from Roche, Basel, Switzerland) at 37° C. for 90 min, then digested with 0.25% trypsin for 8 min at 37° C., followed by 0.25% trypsin inhibitor. Cells were mechanically dissociated with a flame polished Pasteur pipette in the presence of 0.05% DNAse I (Sigma, St. Louis, Miss., United States of America). DRG cells were plated on glass cover slips and grown in a neurobasal defined medium (with 2% B27 supplement, Invitrogen, Carlsbad, Calif., United States of America) with 5 μM AraC and 5% carbon dioxide at 36.5° C. DRG neurons were grown for 24 hours before use. Whole-cell patch clamp recordings were performed at room temperature using an Axopatch-700B amplifier (Axon Instruments, Foster City, Calif., United States of America) with a Digidata 1440B (Axon Instruments, Foster City, Calif., United States of America). Only SOM-positive neurons (<[…]) were recorded. […] Pipette resistance was 4-6 MΩ for whole-cell recording of periostin—induced inward currents, as previously recorded (Han et al., Neuron, 2018, PMID: 30033153)

| Molecule | AITC-induced calcium response [1] | eye-wiping response to ocular application [2] | itch after periostin injection in dogs [3] | itch after periostin injection in monkeys [4] | inward current by periostin ([5]; periostin 1 μg/ml, pilot data) | average inward current by periostin ([5]; periostin 10 μg/ml, 8 neurons from 4 mice) [pA] |
| --- | --- | --- | --- | --- | --- | --- |
| CC(C)[C@H]1C(=O)N[C@@H](CCCN=C(N)N)C(=O)NCC(=O)N[C@@H](CC(=O)O)C(=O)N[C@H](Cc2ccccc2)C(=O)N1C [cilengitide, cyclo RGDf-n(Me)V] | did not reduce | – | – | – | – | – |
| B1 | – | No eye-wiping response | robust scratching | robust scratching | weak inward currents | 58.4 |

From patent US20220370545A1, “INTEGRIN RECEPTOR ALPHA V BETA 3 AND ITS LIGAND INVOLVED IN CHRONIC ITCH” (North Carolina State University, priority 2019, published 2022)
